In US20220332804A1 (CSL INNOVATION, published 2022):

Experiments:
Test in all cases: SPR, antibody captured, C2 as analyte;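 note: biacore SPR at 37 °C, anti-C2 mAbs captured via goat anti-human IgG on CM5 chips, double-referenced sensorgrams fit to a 1:1 kinetic or steady-state model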
human C2 A717S = target: T1, human C2 A717S (human, UniProt P06681 21-752)
T1 sequence: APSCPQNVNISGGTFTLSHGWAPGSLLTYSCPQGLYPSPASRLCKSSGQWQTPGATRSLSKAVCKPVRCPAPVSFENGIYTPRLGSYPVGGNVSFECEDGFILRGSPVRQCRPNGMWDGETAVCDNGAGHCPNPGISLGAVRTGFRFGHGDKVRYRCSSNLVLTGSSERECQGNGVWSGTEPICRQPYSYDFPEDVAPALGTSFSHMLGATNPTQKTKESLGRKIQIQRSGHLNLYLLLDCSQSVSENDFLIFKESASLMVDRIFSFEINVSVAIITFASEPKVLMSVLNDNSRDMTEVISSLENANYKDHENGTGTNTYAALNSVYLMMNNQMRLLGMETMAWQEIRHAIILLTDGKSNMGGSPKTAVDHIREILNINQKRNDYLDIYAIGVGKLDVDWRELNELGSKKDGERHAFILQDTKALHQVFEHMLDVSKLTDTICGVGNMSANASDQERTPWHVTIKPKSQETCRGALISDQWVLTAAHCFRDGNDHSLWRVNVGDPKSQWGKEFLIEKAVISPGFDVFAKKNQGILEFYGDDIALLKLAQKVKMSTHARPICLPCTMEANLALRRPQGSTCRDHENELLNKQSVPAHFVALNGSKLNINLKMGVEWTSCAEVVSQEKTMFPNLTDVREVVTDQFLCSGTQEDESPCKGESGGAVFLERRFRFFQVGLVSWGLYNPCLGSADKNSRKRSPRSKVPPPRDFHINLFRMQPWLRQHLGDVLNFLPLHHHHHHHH

human C2 F270A = target: T2, human C2 F270A (human, UniProt P06681 21-752)
T2 sequence: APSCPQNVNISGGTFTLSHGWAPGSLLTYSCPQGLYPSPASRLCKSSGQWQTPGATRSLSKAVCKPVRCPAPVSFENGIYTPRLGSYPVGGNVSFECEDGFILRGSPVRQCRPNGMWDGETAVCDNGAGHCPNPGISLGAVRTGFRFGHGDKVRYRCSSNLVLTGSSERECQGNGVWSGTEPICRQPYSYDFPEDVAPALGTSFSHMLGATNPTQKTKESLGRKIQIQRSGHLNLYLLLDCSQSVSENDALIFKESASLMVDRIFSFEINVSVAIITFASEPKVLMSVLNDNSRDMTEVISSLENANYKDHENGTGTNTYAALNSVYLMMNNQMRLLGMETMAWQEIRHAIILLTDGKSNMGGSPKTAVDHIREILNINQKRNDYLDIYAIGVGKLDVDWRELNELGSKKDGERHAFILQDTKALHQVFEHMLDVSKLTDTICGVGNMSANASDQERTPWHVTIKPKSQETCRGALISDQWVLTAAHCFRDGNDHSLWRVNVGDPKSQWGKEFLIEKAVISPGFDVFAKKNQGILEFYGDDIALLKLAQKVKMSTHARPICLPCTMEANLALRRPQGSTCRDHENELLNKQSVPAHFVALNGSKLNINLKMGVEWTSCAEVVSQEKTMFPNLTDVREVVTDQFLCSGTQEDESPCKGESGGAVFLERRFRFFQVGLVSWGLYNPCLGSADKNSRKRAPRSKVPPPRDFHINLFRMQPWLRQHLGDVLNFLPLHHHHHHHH

human C2 F689A = target: T3, human C2 F689A (human, UniProt P06681 21-752)
T3 sequence: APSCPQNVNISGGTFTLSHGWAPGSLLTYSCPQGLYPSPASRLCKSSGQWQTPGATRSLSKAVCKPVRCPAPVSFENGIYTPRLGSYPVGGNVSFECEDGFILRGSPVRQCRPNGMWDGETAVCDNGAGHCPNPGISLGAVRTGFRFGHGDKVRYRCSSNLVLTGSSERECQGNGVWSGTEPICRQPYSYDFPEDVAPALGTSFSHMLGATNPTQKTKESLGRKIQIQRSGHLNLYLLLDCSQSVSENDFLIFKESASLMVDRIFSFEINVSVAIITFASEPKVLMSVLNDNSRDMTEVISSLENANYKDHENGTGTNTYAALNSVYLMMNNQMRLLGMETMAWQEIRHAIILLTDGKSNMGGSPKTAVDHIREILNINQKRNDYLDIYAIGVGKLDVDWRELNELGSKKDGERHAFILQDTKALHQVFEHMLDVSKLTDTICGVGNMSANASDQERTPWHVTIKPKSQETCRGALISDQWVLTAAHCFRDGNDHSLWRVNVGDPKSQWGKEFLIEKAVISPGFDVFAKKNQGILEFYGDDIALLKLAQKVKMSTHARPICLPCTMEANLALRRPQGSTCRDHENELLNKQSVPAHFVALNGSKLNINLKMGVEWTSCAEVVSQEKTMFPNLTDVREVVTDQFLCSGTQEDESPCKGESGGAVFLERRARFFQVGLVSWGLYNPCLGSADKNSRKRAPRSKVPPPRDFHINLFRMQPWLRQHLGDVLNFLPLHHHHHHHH

human C2 K676S = target: T4, human C2 K676S (human, UniProt P06681 21-752)
T4 sequence: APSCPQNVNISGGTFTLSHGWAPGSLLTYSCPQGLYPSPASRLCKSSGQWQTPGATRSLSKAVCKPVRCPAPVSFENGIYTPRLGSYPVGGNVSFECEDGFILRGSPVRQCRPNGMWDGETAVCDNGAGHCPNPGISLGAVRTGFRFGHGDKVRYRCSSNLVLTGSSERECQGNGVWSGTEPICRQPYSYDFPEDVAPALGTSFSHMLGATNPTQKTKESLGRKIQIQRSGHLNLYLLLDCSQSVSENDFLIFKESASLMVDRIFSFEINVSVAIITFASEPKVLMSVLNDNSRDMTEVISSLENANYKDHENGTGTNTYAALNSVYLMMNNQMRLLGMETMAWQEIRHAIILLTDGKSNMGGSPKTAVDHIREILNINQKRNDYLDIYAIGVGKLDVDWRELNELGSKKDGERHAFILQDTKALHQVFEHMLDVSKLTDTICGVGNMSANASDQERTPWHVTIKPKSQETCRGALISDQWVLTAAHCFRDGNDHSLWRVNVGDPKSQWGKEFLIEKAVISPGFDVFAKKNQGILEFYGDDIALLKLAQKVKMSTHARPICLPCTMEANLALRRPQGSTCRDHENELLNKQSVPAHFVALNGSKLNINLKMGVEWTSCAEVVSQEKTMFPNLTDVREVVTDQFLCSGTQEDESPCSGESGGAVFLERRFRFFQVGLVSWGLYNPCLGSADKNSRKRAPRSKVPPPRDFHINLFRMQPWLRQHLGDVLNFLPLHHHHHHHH

B1: RF16-226 (antibody, human IgG4 S228P, lambda)
heavy: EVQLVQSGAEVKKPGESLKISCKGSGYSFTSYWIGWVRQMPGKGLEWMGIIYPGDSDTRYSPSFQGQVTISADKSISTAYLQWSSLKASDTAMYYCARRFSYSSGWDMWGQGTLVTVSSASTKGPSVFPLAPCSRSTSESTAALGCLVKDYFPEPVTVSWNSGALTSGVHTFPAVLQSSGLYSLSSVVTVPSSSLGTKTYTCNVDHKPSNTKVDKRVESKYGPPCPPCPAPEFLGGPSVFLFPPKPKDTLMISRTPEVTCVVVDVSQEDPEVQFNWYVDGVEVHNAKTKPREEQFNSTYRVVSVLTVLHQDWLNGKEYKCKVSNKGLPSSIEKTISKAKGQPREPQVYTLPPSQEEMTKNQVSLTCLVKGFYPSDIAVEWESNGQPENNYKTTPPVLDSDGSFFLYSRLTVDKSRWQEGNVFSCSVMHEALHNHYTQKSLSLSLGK
light: SYELTQPPSVSVSPGQTARITCSGDALTSKYVAWYQQKSGLAPLLVIYEDTRRPSGIPAKFSGSSSGSVATLTISGAHGDDEADYYCYSTDASGHQRVFGGGTKLTVLSQPKAAPSVTLFPPSSEELQANKATLVCLISDFYPGAVTVAWKADGSPVKAGVETTKPSKQSNNKYAASSYLSLTPEQWKSHRSYSCQVTHEGSTVEKTVAPTECS
notes: pH-dependent anti-C2 antibody from a phage display library; also called WT
Human C2 A717S
  Kd: 406 nM
Human C2 F270A
  Kd: 96.8 nM
Human C2 F689A
  Kd: 9.3 nM
Human C2 K676S
  Kd: 16.3 nM
